The source of these data is article doi:10.64898/2025.12.30.697132, “Explaining how mutations affect AlphaFold predictions” (bioRxiv, 2025).

This data set deals with the molecule itself. The data set is described as follows: 19F NMR; 4-F-Phe labelled hXCL1(1-72) at 100 uM in 20 mM NaPO4, 50 mM NaCl, pH 6.5, 35 °C; populations of the dimer fold and the monomeric chemokine fold.

B1: Human XCL1(1-72) (domain or fragment, UniProt P47992 22-93, looked up)
chain: VGSEVSDKRTCVSLTTQRLPVSRIKTYTITEGSLRAVIFITKRGLKVCADPQATWVRDVVRSMDRKSNTRNN
modifications: 4-fluorophenylalanine, presumed at F39 (single fluorine atom verified by electrospray mass spectrometry)
notes: XCL1, human, residues 1-72, lacks the disordered C-terminal tail (residues 73-93); The protein exchanges between a monomeric chemokine fold and a dimeric beta-sheet fold; also called hXCL1(1-72); wildtype XCL1
Turning to B1, the “percent of the protein in the dimer fold” value was determined as 77%.
